This is an account of results in paper PMC5510750.

For orientation: Kd means the concentration at which binding is half-saturated. Read a low Kd as tighter binding.

This assay addresses IFN-λ3 H11 displayed on yeast. The experiment in a line: flow cytometry on cells.

Chain of IL-10Rβ, monomeric soluble receptor (Q08334 20-220): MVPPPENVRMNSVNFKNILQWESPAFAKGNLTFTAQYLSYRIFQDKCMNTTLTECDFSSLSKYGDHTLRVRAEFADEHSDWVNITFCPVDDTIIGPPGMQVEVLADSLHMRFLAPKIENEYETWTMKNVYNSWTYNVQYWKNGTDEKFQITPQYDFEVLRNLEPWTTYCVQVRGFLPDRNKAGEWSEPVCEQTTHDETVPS

As to “IL-10Rβ, monomeric soluble receptor (from UniProt Q08334 20-220)”, the Kd came to 200 nM.
